{
  "source": "patent US20130177919",
  "key": {"[1]": {"molecular_target": "T1, recombinant GST-Flag-CERT-S132A(1-138) fusion protein from E. coli", "T1 chain": "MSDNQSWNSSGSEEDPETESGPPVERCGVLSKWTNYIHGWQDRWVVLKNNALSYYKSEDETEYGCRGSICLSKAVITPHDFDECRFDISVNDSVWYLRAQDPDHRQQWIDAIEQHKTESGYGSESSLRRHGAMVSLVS"}, "[2]": {"molecular_target": "T2, recombinant GST-Flag-CERT(1-138) wild type fusion protein from E. coli", "T2 chain": "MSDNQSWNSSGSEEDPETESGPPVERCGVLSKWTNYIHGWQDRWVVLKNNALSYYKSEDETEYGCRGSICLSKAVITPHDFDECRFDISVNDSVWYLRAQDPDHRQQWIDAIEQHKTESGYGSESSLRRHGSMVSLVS"}},
  "data": [
    {"protein": "purified PKD1 (protein) MSAPPVLRPPSPLLPVAAAAAAAAAALVPGSGPGPAPFLAPVAAPVGGISFHLQIGLSREPVLLLQDSSGDYSLAHVREMACSIVDQKFPECGFYGMYDKILLFRHDPTSENILQLVKAASDIQEGDLIEVVLSASATFEDFQIRPHALFVHSYRAPAFCDHCGEMLWGLVRQGLKCEGCGLNYHKRCAFKIPNNCSGVRRRRLSNVSLTGVSTIRTSSAELSTSAPDEPLLQKSPSESFIGREKRSNSQSYIGRPIHLDKILMSKVKVPHTFVIHSYTRPTVCQYCKKLLKGLFRQGLQCKDCRFNCHKRCAPKVPNNCLGEVTINGDLLSPGAESDVVMEEGSDDNDSERNSGLMDDMEEAMVQDAEMAMAECQNDSGEMQDPDPDHEDANRTISPSTSNNIPLMRVVQSVKHTKRKSSTVMKEGWMVHYTSKDTLRKRHYWRLDSKCITLFQNDTGSRYYKEIPLSEILSLEPVKTSALIPNGANPHCFEITTANVVYYVGENVVNPSSPSPNNSVLTSGVGADVARMWEIAIQHALMPVIPKGSSVGTGTNLHRDISVSISVSNCQIQENVDISTVYQIFPDEVLGSGQFGIVYGGKHRKTGRDVAIKIIDKLRFPTKQESQLRNEVAILQNLHHPGVVNLECMFETPERVFVVMEKLHGDMLEMILSSEKGRLPEHITKFLITQILVALRHLHFKNIVHCDLKPENVLLASADPFPQVKLCDFGFARIIGEKSFRRSVVGTPAYLAPEVLRNKGYNRSLDMWSVGVIIYVSLSGTFPFNEDEDIHDQIQNAAFMYPPNPWKEISHEAIDLINNLLQVKMRKRYSVDKTLSHPWLQDYQTWLDLRELECKIGERYITHESDDLRWEKYAGEQGLQYPTHLINPSASHSDTPETEETEMKALGERVSIL", "values": [
      {"measurement": "incorporation of radioactivity ([γ-32P]-ATP, in vitro kinase assay)", "setting": "[1]", "value": "This is significantly impaired in the case of the CERT-S132A fusion protein"},
      {"measurement": "incorporation of radioactivity ([γ-32P]-ATP, in vitro kinase assay)", "setting": "[2]", "value": "incorporation of radioactivity is detected"}
    ]}
  ]
}
